Patent US20060223757, “Zinc finger binding domains for GNN” (published 2006)

Legend:
[1] = biological target: T1, E2C (six-finger Sp1C framework protein) (synthetic construct); assay: EMSA; ±15%; ZBA buffer with ZnCl2, room temperature
[2] = biological target: T2, E3 (six-finger Sp1C framework protein) (synthetic construct); assay: EMSA; ±15%; about 30-fold lower affinity than E3 target
[3] = biological target: T1, E2C (six-finger Sp1C framework protein); assay: EMSA; ±30%; 3 mismatches to E2C target
[4] = biological target: T2, E3 (six-finger Sp1C framework protein); assay: EMSA; ±10%; ZBA buffer with ZnCl2, room temperature

T2 sequence (chain, as listed by the source): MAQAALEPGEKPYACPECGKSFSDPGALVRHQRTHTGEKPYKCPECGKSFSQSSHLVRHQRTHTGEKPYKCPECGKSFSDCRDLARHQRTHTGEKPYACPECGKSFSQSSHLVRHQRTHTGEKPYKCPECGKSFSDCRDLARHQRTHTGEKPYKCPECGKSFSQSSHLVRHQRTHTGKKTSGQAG
T1 sequence (chain, as listed by the source): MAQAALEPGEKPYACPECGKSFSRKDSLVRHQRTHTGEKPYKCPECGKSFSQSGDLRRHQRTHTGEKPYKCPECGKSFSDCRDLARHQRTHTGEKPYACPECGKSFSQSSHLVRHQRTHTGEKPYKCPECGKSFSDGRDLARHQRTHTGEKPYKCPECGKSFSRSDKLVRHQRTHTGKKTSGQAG

Binder	Kd [1]	Kd [2]	Kd [3]	Kd [4]
E2C target site (erbB-2 5'-UTR) (dsDNA) DNA 1: GGGGCCGGAGCCGCAGTG DNA 2: CACTGCGGCTCCGGCCCC	0.75 nM	10 nM		
E3 target site (erbB-3 5'-UTR) (dsDNA) DNA 1: GGAGCCGGAGCCGGAGTC DNA 2: GACTCCGGCTCCGGCTCC			11 nM	0.35 nM
